These results are taken from patent US20140087995A1 (published 2014).

Numbered stars: 1 amine (or outer) side, 2 acyl side, 3 side chain; on linkers, the order of the positions; unused ones are H or OH. Bridge positions count the residues as written; N and C are the ends. Side chains are listed from the residue outwards. Ends that are not written are not given here. * marks the point of attachment. C20 diacid = O=C(O)CCCCCCCCCCCCCCCCCCC(=O)*; γGlu = O=C(O)[C@H](CCC(=O)[*:2])N[*:1]

As usually defined, the IC50 is the concentration that inhibits the measured activity by half.

Assay [1] concerns the target T1, human calcitonin receptor (human, UniProt P30988 25-474).
T1 construct: whole, on cells; Used as cell membranes; also called hCTR; hCT
T1 sequence (looked up): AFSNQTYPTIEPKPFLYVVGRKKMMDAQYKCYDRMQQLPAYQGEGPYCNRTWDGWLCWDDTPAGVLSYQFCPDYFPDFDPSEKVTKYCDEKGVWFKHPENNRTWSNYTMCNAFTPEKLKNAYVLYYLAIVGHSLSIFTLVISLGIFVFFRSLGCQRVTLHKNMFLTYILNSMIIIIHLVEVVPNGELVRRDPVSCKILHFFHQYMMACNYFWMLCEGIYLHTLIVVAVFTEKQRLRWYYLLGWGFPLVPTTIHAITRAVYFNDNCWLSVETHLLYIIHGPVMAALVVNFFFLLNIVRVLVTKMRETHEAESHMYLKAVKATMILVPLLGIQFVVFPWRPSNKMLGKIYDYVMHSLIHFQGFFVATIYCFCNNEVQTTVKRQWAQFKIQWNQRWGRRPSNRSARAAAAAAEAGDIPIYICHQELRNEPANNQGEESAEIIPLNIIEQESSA
The assay is described as follows: ratio of hCTR IC50 to hAmylin-R IC50 (reference: human amylin receptor). A digest of the protocol:
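Scintillation proximity competition binding on cell membranes at 35 ng/μL with SPA beads, in 50 mM Hepes pH 7.4, 1 mM CaCl2, 5 mM MgCl₂, 0.1% OA, 0.02% Tween20. Incubated 120 min at 25° C with shaking. IC₅₀ from one-site competition fit.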

Assay [2] addresses T1, human calcitonin receptor. Briefly: SPA competition on BHK cell membranes, 125I-calcitonin as radioligand (Assay VII). The method, boiled down:
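BHK hCTR membranes 35 ng/μL + SPA beads 0.05 mg/well; buffer 50 mM Hepes pH 7.4, 1 mM CaCl2, 5 mM MgCl₂, 0.1% OA, 0.02% Tween20. 120 min, 25° C., shaking. Scintillation count; IC50 by one-site binding competition.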

B1: N^ε1-[(4S)-4-carboxy-4-(19-carboxynonadecanoylamino)butanoyl]-[Arg14,Arg17,Pro21,Pro27,Pro34]-h-amylin (peptide)
peptide: K([γGlu-C20 diacid])CNTATCATQRLARFLRHSSPNFGAIPSSTNVGPNTY-NH2
modifications: disulfide 2-7; N-terminus assumed
SMILES: CC[C@H](C)[C@H](NC(=O)[C@H](C)NC(=O)CNC(=O)[C@H](Cc1ccccc1)NC(=O)[C@H](CC(N)=O)NC(=O)[C@@H]1CCCN1C(=O)[C@H](CO)NC(=O)[C@H](CO)NC(=O)[C@H](Cc1c[nH]cn1)NC(=O)[C@H](CCCNC(=N)N)NC(=O)[C@H](CC(C)C)NC(=O)[C@H](Cc1ccccc1)NC(=O)[C@H](CCCNC(=N)N)NC(=O)[C@H](C)NC(=O)[C@H](CC(C)C)NC(=O)[C@H](CCCNC(=N)N)NC(=O)[C@H](CCC(N)=O)NC(=O)[C@@H](NC(=O)[C@H](C)NC(=O)[C@@H]1CSSC[C@H](NC(=O)[C@@H](N)CCCCNC(=O)CC[C@H](NC(=O)CCCCCCCCCCCCCCCCCCC(=O)O)C(=O)O)C(=O)N[C@@H](CC(N)=O)C(=O)N[C@@H]([C@@H](C)O)C(=O)N[C@@H](C)C(=O)N[C@@H]([C@@H](C)O)C(=O)N1)[C@@H](C)O)C(=O)N1CCC[C@H]1C(=O)N[C@@H](CO)C(=O)N[C@@H](CO)C(=O)N[C@H](C(=O)N[C@@H](CC(N)=O)C(=O)N[C@H](C(=O)NCC(=O)N1CCC[C@H]1C(=O)N[C@@H](CC(N)=O)C(=O)N[C@H](C(=O)N[C@@H](Cc1ccc(O)cc1)C(N)=O)[C@@H](C)O)C(C)C)[C@@H](C)O
notes: also called compound 65
Take B1: the “Ratio hCT/hAmylin binding” value in assay [1] stood at 82.4. For the same molecule, in assay [2], the IC50 stood at 53.5 nM.

B2: N^ε1-[(4S)-4-carboxy-4-(19-carboxynonadecanoylamino)butanoyl]-[Arg17,Pro21,Pro27,Arg34]-h-amylin (peptide)
peptide: K([γGlu-C20 diacid])CNTATCATQRLANFLRHSSPNFGAIPSSTNVGRNTY-NH2
modifications: disulfide 2-7; N-terminus assumed
SMILES: CC[C@H](C)[C@H](NC(=O)[C@H](C)NC(=O)CNC(=O)[C@H](Cc1ccccc1)NC(=O)[C@H](CC(N)=O)NC(=O)[C@@H]1CCCN1C(=O)[C@H](CO)NC(=O)[C@H](CO)NC(=O)[C@H](Cc1c[nH]cn1)NC(=O)[C@H](CCCNC(=N)N)NC(=O)[C@H](CC(C)C)NC(=O)[C@H](Cc1ccccc1)NC(=O)[C@H](CC(N)=O)NC(=O)[C@H](C)NC(=O)[C@H](CC(C)C)NC(=O)[C@H](CCCNC(=N)N)NC(=O)[C@H](CCC(N)=O)NC(=O)[C@@H](NC(=O)[C@H](C)NC(=O)[C@@H]1CSSC[C@H](NC(=O)[C@@H](N)CCCCNC(=O)CC[C@H](NC(=O)CCCCCCCCCCCCCCCCCCC(=O)O)C(=O)O)C(=O)N[C@@H](CC(N)=O)C(=O)N[C@@H]([C@@H](C)O)C(=O)N[C@@H](C)C(=O)N[C@@H]([C@@H](C)O)C(=O)N1)[C@@H](C)O)C(=O)N1CCC[C@H]1C(=O)N[C@@H](CO)C(=O)N[C@@H](CO)C(=O)N[C@H](C(=O)N[C@@H](CC(N)=O)C(=O)N[C@H](C(=O)NCC(=O)N[C@@H](CCCNC(=N)N)C(=O)N[C@@H](CC(N)=O)C(=O)N[C@H](C(=O)N[C@@H](Cc1ccc(O)cc1)C(N)=O)[C@@H](C)O)C(C)C)[C@@H](C)O
notes: also called compound 79
On to B2, for which the “Ratio hCT/hAmylin binding” value in assay [1] worked out at 46.1. The IC50 in assay [2] is 36.4 nM.

B3: N^ε1-[(4S)-4-carboxy-4-(19-carboxynonadecanoylamino)butanoyl]-[Glu14,Arg17,Pro21,Pro27,Pro34,Glu35]-h-amylin (peptide)
peptide: K([γGlu-C20 diacid])CNTATCATQRLAEFLRHSSPNFGAIPSSTNVGPETY-NH2
modifications: disulfide 2-7; N-terminus assumed
SMILES: CC[C@H](C)[C@H](NC(=O)[C@H](C)NC(=O)CNC(=O)[C@H](Cc1ccccc1)NC(=O)[C@H](CC(N)=O)NC(=O)[C@@H]1CCCN1C(=O)[C@H](CO)NC(=O)[C@H](CO)NC(=O)[C@H](Cc1c[nH]cn1)NC(=O)[C@H](CCCNC(=N)N)NC(=O)[C@H](CC(C)C)NC(=O)[C@H](Cc1ccccc1)NC(=O)[C@H](CCC(=O)O)NC(=O)[C@H](C)NC(=O)[C@H](CC(C)C)NC(=O)[C@H](CCCNC(=N)N)NC(=O)[C@H](CCC(N)=O)NC(=O)[C@@H](NC(=O)[C@H](C)NC(=O)[C@@H]1CSSC[C@H](NC(=O)[C@@H](N)CCCCNC(=O)CC[C@H](NC(=O)CCCCCCCCCCCCCCCCCCC(=O)O)C(=O)O)C(=O)N[C@@H](CC(N)=O)C(=O)N[C@@H]([C@@H](C)O)C(=O)N[C@@H](C)C(=O)N[C@@H]([C@@H](C)O)C(=O)N1)[C@@H](C)O)C(=O)N1CCC[C@H]1C(=O)N[C@@H](CO)C(=O)N[C@@H](CO)C(=O)N[C@H](C(=O)N[C@@H](CC(N)=O)C(=O)N[C@H](C(=O)NCC(=O)N1CCC[C@H]1C(=O)N[C@@H](CCC(=O)O)C(=O)N[C@H](C(=O)N[C@@H](Cc1ccc(O)cc1)C(N)=O)[C@@H](C)O)C(C)C)[C@@H](C)O
Regarding B3, the “Ratio hCT/hAmylin binding” value in assay [1] was 13.3. Moreover, the IC50 in assay [2] was 1.86 nM.

B4: N^ε1-[(4S)-4-carboxy-4-(19-carboxynonadecanoylamino)butanoyl]-[His14,Arg17,Pro21,Pro27,His34]-h-amylin (peptide)
peptide: K([γGlu-C20 diacid])CNTATCATQRLAHFLRHSSPNFGAIPSSTNVGHNTY-NH2
modifications: disulfide 2-7; N-terminus assumed
SMILES: CC[C@H](C)[C@H](NC(=O)[C@H](C)NC(=O)CNC(=O)[C@H](Cc1ccccc1)NC(=O)[C@H](CC(N)=O)NC(=O)[C@@H]1CCCN1C(=O)[C@H](CO)NC(=O)[C@H](CO)NC(=O)[C@H](Cc1c[nH]cn1)NC(=O)[C@H](CCCNC(=N)N)NC(=O)[C@H](CC(C)C)NC(=O)[C@H](Cc1ccccc1)NC(=O)[C@H](Cc1c[nH]cn1)NC(=O)[C@H](C)NC(=O)[C@H](CC(C)C)NC(=O)[C@H](CCCNC(=N)N)NC(=O)[C@H](CCC(N)=O)NC(=O)[C@@H](NC(=O)[C@H](C)NC(=O)[C@@H]1CSSC[C@H](NC(=O)[C@@H](N)CCCCNC(=O)CC[C@H](NC(=O)CCCCCCCCCCCCCCCCCCC(=O)O)C(=O)O)C(=O)N[C@@H](CC(N)=O)C(=O)N[C@@H]([C@@H](C)O)C(=O)N[C@@H](C)C(=O)N[C@@H]([C@@H](C)O)C(=O)N1)[C@@H](C)O)C(=O)N1CCC[C@H]1C(=O)N[C@@H](CO)C(=O)N[C@@H](CO)C(=O)N[C@H](C(=O)N[C@@H](CC(N)=O)C(=O)N[C@H](C(=O)NCC(=O)N[C@@H](Cc1c[nH]cn1)C(=O)N[C@@H](CC(N)=O)C(=O)N[C@H](C(=O)N[C@@H](Cc1ccc(O)cc1)C(N)=O)[C@@H](C)O)C(C)C)[C@@H](C)O
notes: also called compound 81
With B4, the “Ratio hCT/hAmylin binding” value in assay [1] is 87.2. The IC50 in assay [2] stood at 23.6 nM.

B5: N^ε1-[(4S)-4-carboxy-4-(19-carboxynonadecanoylamino)butanoyl]-[Glu14,Arg17,Pro21,Pro27,Arg34,Glu35]-h-amylin (peptide)
peptide: K([γGlu-C20 diacid])CNTATCATQRLAEFLRHSSPNFGAIPSSTNVGRETY-NH2
modifications: disulfide 2-7; N-terminus assumed
SMILES: CC[C@H](C)[C@H](NC(=O)[C@H](C)NC(=O)CNC(=O)[C@H](Cc1ccccc1)NC(=O)[C@H](CC(N)=O)NC(=O)[C@@H]1CCCN1C(=O)[C@H](CO)NC(=O)[C@H](CO)NC(=O)[C@H](Cc1c[nH]cn1)NC(=O)[C@H](CCCNC(=N)N)NC(=O)[C@H](CC(C)C)NC(=O)[C@H](Cc1ccccc1)NC(=O)[C@H](CCC(=O)O)NC(=O)[C@H](C)NC(=O)[C@H](CC(C)C)NC(=O)[C@H](CCCNC(=N)N)NC(=O)[C@H](CCC(N)=O)NC(=O)[C@@H](NC(=O)[C@H](C)NC(=O)[C@@H]1CSSC[C@H](NC(=O)[C@@H](N)CCCCNC(=O)CC[C@H](NC(=O)CCCCCCCCCCCCCCCCCCC(=O)O)C(=O)O)C(=O)N[C@@H](CC(N)=O)C(=O)N[C@@H]([C@@H](C)O)C(=O)N[C@@H](C)C(=O)N[C@@H]([C@@H](C)O)C(=O)N1)[C@@H](C)O)C(=O)N1CCC[C@H]1C(=O)N[C@@H](CO)C(=O)N[C@@H](CO)C(=O)N[C@H](C(=O)N[C@@H](CC(N)=O)C(=O)N[C@H](C(=O)NCC(=O)N[C@@H](CCCNC(=N)N)C(=O)N[C@@H](CCC(=O)O)C(=O)N[C@H](C(=O)N[C@@H](Cc1ccc(O)cc1)C(N)=O)[C@@H](C)O)C(C)C)[C@@H](C)O
On to B5, for which the “Ratio hCT/hAmylin binding” value in assay [1] is 28.5. The IC50 in assay [2] worked out at 6.62 nM.

B6: N^ε1-[(4S)-4-carboxy-4-(19-carboxynonadecanoylamino)butanoyl]-[Glu14,Arg17,Pro21,Pro27,His34,Glu35]-h-amylin (peptide)
peptide: K([γGlu-C20 diacid])CNTATCATQRLAEFLRHSSPNFGAIPSSTNVGHETY-NH2
modifications: disulfide 2-7; N-terminus assumed
SMILES: CC[C@H](C)[C@H](NC(=O)[C@H](C)NC(=O)CNC(=O)[C@H](Cc1ccccc1)NC(=O)[C@H](CC(N)=O)NC(=O)[C@@H]1CCCN1C(=O)[C@H](CO)NC(=O)[C@H](CO)NC(=O)[C@H](Cc1c[nH]cn1)NC(=O)[C@H](CCCNC(=N)N)NC(=O)[C@H](CC(C)C)NC(=O)[C@H](Cc1ccccc1)NC(=O)[C@H](CCC(=O)O)NC(=O)[C@H](C)NC(=O)[C@H](CC(C)C)NC(=O)[C@H](CCCNC(=N)N)NC(=O)[C@H](CCC(N)=O)NC(=O)[C@@H](NC(=O)[C@H](C)NC(=O)[C@@H]1CSSC[C@H](NC(=O)[C@@H](N)CCCCNC(=O)CC[C@H](NC(=O)CCCCCCCCCCCCCCCCCCC(=O)O)C(=O)O)C(=O)N[C@@H](CC(N)=O)C(=O)N[C@@H]([C@@H](C)O)C(=O)N[C@@H](C)C(=O)N[C@@H]([C@@H](C)O)C(=O)N1)[C@@H](C)O)C(=O)N1CCC[C@H]1C(=O)N[C@@H](CO)C(=O)N[C@@H](CO)C(=O)N[C@H](C(=O)N[C@@H](CC(N)=O)C(=O)N[C@H](C(=O)NCC(=O)N[C@@H](Cc1c[nH]cn1)C(=O)N[C@@H](CCC(=O)O)C(=O)N[C@H](C(=O)N[C@@H](Cc1ccc(O)cc1)C(N)=O)[C@@H](C)O)C(C)C)[C@@H](C)O
notes: also called compound 107
In the case of B6, in assay [1], the “Ratio hCT/hAmylin binding” value turned out to be 11.1. Also, the IC50 in assay [2] was 4.28 nM.
